Test results taken from article PMC3391102 (The Journal of Biological Chemistry, 2012).

Molecular target: Full-length NOD2 (purified recombinant, tags removed) (UniProt Q9HC29 1-1040)
Assay: SPR

Chain of Full-length NOD2 (purified recombinant, tags removed) (Q9HC29 whole entry): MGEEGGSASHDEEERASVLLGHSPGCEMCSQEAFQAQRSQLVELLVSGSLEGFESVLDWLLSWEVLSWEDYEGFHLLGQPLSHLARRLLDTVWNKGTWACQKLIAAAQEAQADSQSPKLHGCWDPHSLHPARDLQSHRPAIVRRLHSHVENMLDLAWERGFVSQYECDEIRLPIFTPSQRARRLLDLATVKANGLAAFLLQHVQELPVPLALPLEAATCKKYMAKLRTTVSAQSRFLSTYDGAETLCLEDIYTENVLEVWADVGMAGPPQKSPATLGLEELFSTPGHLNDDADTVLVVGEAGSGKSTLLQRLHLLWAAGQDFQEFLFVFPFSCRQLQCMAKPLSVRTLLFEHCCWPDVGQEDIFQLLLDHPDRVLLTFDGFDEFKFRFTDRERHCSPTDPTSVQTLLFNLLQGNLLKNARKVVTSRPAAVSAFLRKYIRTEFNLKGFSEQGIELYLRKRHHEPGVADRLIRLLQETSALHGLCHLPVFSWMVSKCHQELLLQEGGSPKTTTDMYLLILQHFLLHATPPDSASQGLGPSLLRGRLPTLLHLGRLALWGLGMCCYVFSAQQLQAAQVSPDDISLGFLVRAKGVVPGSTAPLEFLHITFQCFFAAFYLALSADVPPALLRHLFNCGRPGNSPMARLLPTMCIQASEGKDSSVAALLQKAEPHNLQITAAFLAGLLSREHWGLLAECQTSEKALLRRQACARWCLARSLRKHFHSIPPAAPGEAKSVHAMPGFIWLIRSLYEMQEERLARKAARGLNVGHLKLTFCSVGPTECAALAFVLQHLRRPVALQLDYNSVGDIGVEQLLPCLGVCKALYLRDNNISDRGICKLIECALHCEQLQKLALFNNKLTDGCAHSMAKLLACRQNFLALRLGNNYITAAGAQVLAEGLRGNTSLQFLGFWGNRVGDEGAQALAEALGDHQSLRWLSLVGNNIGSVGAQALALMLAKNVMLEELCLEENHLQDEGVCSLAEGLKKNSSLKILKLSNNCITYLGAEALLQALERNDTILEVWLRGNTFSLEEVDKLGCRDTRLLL

Kd: 12.4 ± 0.58 µM
B1: NOD2 CARDs (residues Met28-Arg227) (domain or fragment)
chain: MCSQEAFQAQRSQLVELLVSGSLEGFESVLDWLLSWEVLSWEDYEGFHLLGQPLSHLARRLLDTVWNKGTWACQKLIAAAQEAQADSQSPKLHGCWDPHSLHPARDLQSHRPAIVRRLHSHVENMLDLAWERGFVSQYECDEIRLPIFTPSQRARRLLDLATVKANGLAAFLLQHVQELPVPLALPLEAATCKKYMAKLR
